Source: US20190119715

T1: α-fructosyl hexapeptide (α-fructosyl-valyl-histidyl-leucyl-threonyl-proryl-glutamic acid) (not fully specified)
T1 chain: VHLTPE

B1: CFP-H38-dh2 (CFP-H37 with R64G, F269L) (protein)
chain: MTSNRADTRVIVVGGGGTIGSSTALHLVRSGYAPANITVLDTFEIPSAQSAGHDLNKIMGIDHGNKVNLQMSLEARQMWKEDELFQPFFHNTGRMDCEHTPKGIEKLKKLYQKLHDAGAGLEKTHAWLDNEDEILSKMPLLQRDQIQGWKAIWSQDGGWLAAAKAINAIGQFLKERGVKFGFGGAGSFKQPLFDDEGTTCIGVETADGTKYYADKVVLAAGAWSPTLVDLEDQCCSKAWVYAHIQLTPEEAAEYKGVPVVYNGEFGFFLEPDEFGVIKVCDEFPGFSRFKEHQPYGAPSPKRISVPRSHAKHPTDTYPDASEVSIKKAIATFLPRFQDKELFNRALCWCTDTADSTLLMCEHPKWKNFILATGDSGHSFKILPNVGKYVVELIEGRLPEEMAYQWRWRPGGDALKSRRAAPPKDLADMPGWKHDPKL
B2: CFP-H40-dh1 (CFP-H37 with R64G, H99S, L110Y, F269M) (protein)
chain: MTSNRADTRVIVVGGGGTIGSSTALHLVRSGYAPANITVLDTFEIPSAQSAGHDLNKIMGIDHGNKVNLQMSLEARQMWKEDELFQPFFHNTGRMDCESTPKGIEKLKKYYQKLHDAGAGLEKTHAWLDNEDEILSKMPLLQRDQIQGWKAIWSQDGGWLAAAKAINAIGQFLKERGVKFGFGGAGSFKQPLFDDEGTTCIGVETADGTKYYADKVVLAAGAWSPTLVDLEDQCCSKAWVYAHIQLTPEEAAEYKGVPVVYNGEFGFFMEPDEFGVIKVCDEFPGFSRFKEHQPYGAPSPKRISVPRSHAKHPTDTYPDASEVSIKKAIATFLPRFQDKELFNRALCWCTDTADSTLLMCEHPKWKNFILATGDSGHSFKILPNVGKYVVELIEGRLPEEMAYQWRWRPGGDALKSRRAAPPKDLADMPGWKHDPKL
B3: CFP-H40-dh3 (CFP-H37 with R64G, H99S, L110Y, C280Q) (protein)
chain: MTSNRADTRVIVVGGGGTIGSSTALHLVRSGYAPANITVLDTFEIPSAQSAGHDLNKIMGIDHGNKVNLQMSLEARQMWKEDELFQPFFHNTGRMDCESTPKGIEKLKKYYQKLHDAGAGLEKTHAWLDNEDEILSKMPLLQRDQIQGWKAIWSQDGGWLAAAKAINAIGQFLKERGVKFGFGGAGSFKQPLFDDEGTTCIGVETADGTKYYADKVVLAAGAWSPTLVDLEDQCCSKAWVYAHIQLTPEEAAEYKGVPVVYNGEFGFFFEPDEFGVIKVQDEFPGFSRFKEHQPYGAPSPKRISVPRSHAKHPTDTYPDASEVSIKKAIATFLPRFQDKELFNRALCWCTDTADSTLLMCEHPKWKNFILATGDSGHSFKILPNVGKYVVELIEGRLPEEMAYQWRWRPGGDALKSRRAAPPKDLADMPGWKHDPKL
B4: CFP-H38-dh3 (CFP-H37 with R64G, C280Q) (protein)
chain: MTSNRADTRVIVVGGGGTIGSSTALHLVRSGYAPANITVLDTFEIPSAQSAGHDLNKIMGIDHGNKVNLQMSLEARQMWKEDELFQPFFHNTGRMDCEHTPKGIEKLKKLYQKLHDAGAGLEKTHAWLDNEDEILSKMPLLQRDQIQGWKAIWSQDGGWLAAAKAINAIGQFLKERGVKFGFGGAGSFKQPLFDDEGTTCIGVETADGTKYYADKVVLAAGAWSPTLVDLEDQCCSKAWVYAHIQLTPEEAAEYKGVPVVYNGEFGFFFEPDEFGVIKVQDEFPGFSRFKEHQPYGAPSPKRISVPRSHAKHPTDTYPDASEVSIKKAIATFLPRFQDKELFNRALCWCTDTADSTLLMCEHPKWKNFILATGDSGHSFKILPNVGKYVVELIEGRLPEEMAYQWRWRPGGDALKSRRAAPPKDLADMPGWKHDPKL
B5: CFP-H40-dh2 (CFP-H37 with R64G, H99S, L110Y, F269L) (protein)
chain: MTSNRADTRVIVVGGGGTIGSSTALHLVRSGYAPANITVLDTFEIPSAQSAGHDLNKIMGIDHGNKVNLQMSLEARQMWKEDELFQPFFHNTGRMDCESTPKGIEKLKKYYQKLHDAGAGLEKTHAWLDNEDEILSKMPLLQRDQIQGWKAIWSQDGGWLAAAKAINAIGQFLKERGVKFGFGGAGSFKQPLFDDEGTTCIGVETADGTKYYADKVVLAAGAWSPTLVDLEDQCCSKAWVYAHIQLTPEEAAEYKGVPVVYNGEFGFFLEPDEFGVIKVCDEFPGFSRFKEHQPYGAPSPKRISVPRSHAKHPTDTYPDASEVSIKKAIATFLPRFQDKELFNRALCWCTDTADSTLLMCEHPKWKNFILATGDSGHSFKILPNVGKYVVELIEGRLPEEMAYQWRWRPGGDALKSRRAAPPKDLADMPGWKHDPKL
B6: CFP-H40 (CFP-T7-H37-R64G/L110Y/H99S), modified amadoriase derived from Coniochaeta sp. (protein)
chain: MTSNRADTRVIVVGGGGTIGSSTALHLVRSGYAPANITVLDTFEIPSAQSAGHDLNKIMGIDHGNKVNLQMSLEARQMWKEDELFQPFFHNTGRMDCESTPKGIEKLKKYYQKLHDAGAGLEKTHAWLDNEDEILSKMPLLQRDQIQGWKAIWSQDGGWLAAAKAINAIGQFLKERGVKFGFGGAGSFKQPLFDDEGTTCIGVETADGTKYYADKVVLAAGAWSPTLVDLEDQCCSKAWVYAHIQLTPEEAAEYKGVPVVYNGEFGFFFEPDEFGVIKVCDEFPGFSRFKEHQPYGAPSPKRISVPRSHAKHPTDTYPDASEVSIKKAIATFLPRFQDKELFNRALCWCTDTADSTLLMCEHPKWKNFILATGDSGHSFKILPNVGKYVVELIEGRLPEEMAYQWRWRPGGDALKSRRAAPPKDLADMPGWKHDPKL
B7: CFP-H40-dh4 (CFP-H37 with R64G, H99S, L110Y, F269M, C280Q) (protein)
chain: MTSNRADTRVIVVGGGGTIGSSTALHLVRSGYAPANITVLDTFEIPSAQSAGHDLNKIMGIDHGNKVNLQMSLEARQMWKEDELFQPFFHNTGRMDCESTPKGIEKLKKYYQKLHDAGAGLEKTHAWLDNEDEILSKMPLLQRDQIQGWKAIWSQDGGWLAAAKAINAIGQFLKERGVKFGFGGAGSFKQPLFDDEGTTCIGVETADGTKYYADKVVLAAGAWSPTLVDLEDQCCSKAWVYAHIQLTPEEAAEYKGVPVVYNGEFGFFMEPDEFGVIKVQDEFPGFSRFKEHQPYGAPSPKRISVPRSHAKHPTDTYPDASEVSIKKAIATFLPRFQDKELFNRALCWCTDTADSTLLMCEHPKWKNFILATGDSGHSFKILPNVGKYVVELIEGRLPEEMAYQWRWRPGGDALKSRRAAPPKDLADMPGWKHDPKL
B8: CFP-H38 (CFP-T7-H37-R64G), modified amadoriase derived from Coniochaeta sp. (protein)
chain: MTSNRADTRVIVVGGGGTIGSSTALHLVRSGYAPANITVLDTFEIPSAQSAGHDLNKIMGIDHGNKVNLQMSLEARQMWKEDELFQPFFHNTGRMDCEHTPKGIEKLKKLYQKLHDAGAGLEKTHAWLDNEDEILSKMPLLQRDQIQGWKAIWSQDGGWLAAAKAINAIGQFLKERGVKFGFGGAGSFKQPLFDDEGTTCIGVETADGTKYYADKVVLAAGAWSPTLVDLEDQCCSKAWVYAHIQLTPEEAAEYKGVPVVYNGEFGFFFEPDEFGVIKVCDEFPGFSRFKEHQPYGAPSPKRISVPRSHAKHPTDTYPDASEVSIKKAIATFLPRFQDKELFNRALCWCTDTADSTLLMCEHPKWKNFILATGDSGHSFKILPNVGKYVVELIEGRLPEEMAYQWRWRPGGDALKSRRAAPPKDLADMPGWKHDPKL
B9: CFP-H38-dh1 (CFP-H37 with R64G, F269M) (protein)
chain: MTSNRADTRVIVVGGGGTIGSSTALHLVRSGYAPANITVLDTFEIPSAQSAGHDLNKIMGIDHGNKVNLQMSLEARQMWKEDELFQPFFHNTGRMDCEHTPKGIEKLKKLYQKLHDAGAGLEKTHAWLDNEDEILSKMPLLQRDQIQGWKAIWSQDGGWLAAAKAINAIGQFLKERGVKFGFGGAGSFKQPLFDDEGTTCIGVETADGTKYYADKVVLAAGAWSPTLVDLEDQCCSKAWVYAHIQLTPEEAAEYKGVPVVYNGEFGFFMEPDEFGVIKVCDEFPGFSRFKEHQPYGAPSPKRISVPRSHAKHPTDTYPDASEVSIKKAIATFLPRFQDKELFNRALCWCTDTADSTLLMCEHPKWKNFILATGDSGHSFKILPNVGKYVVELIEGRLPEEMAYQWRWRPGGDALKSRRAAPPKDLADMPGWKHDPKL

Experiments:
[1] = biological target: T1, α-fructosyl hexapeptide …

Chain of hemoglobin A1c (HbA1c) (chain, as listed by the source, chain 1 of 2): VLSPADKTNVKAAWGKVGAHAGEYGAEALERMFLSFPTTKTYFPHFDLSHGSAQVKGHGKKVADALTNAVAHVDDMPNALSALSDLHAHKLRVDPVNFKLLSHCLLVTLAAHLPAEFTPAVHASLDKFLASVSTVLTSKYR
Chain of hemoglobin A1c (HbA1c) (chain, as listed by the source, chain 2 of 2): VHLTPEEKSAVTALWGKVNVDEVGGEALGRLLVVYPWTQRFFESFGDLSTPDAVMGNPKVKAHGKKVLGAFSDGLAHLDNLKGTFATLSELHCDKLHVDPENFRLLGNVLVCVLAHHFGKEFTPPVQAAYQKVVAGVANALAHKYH

Protein | Dehydrogenase activity (%) with 1 mM αF6P as substrate, relative to oxidase activity of CFP-H38 = 100 [1] [%] | OX/DH (%) relative to CFP-H38 = 100 [1] [%] | OX/DH (ratio of oxidase to dehydrogenase activity, αF6P as substrate) [1] | Oxidase activity (%) with 1 mM αF6P as substrate, relative to oxidase activity of CFP-H38 = 100 [1] [%] | Dehydrogenase activity (%) with 1 mM αF6P as substrate, relative to oxidase activity of CFP-H40 = 100 [1] [%] | OX/DH (%) relative to CFP-H40 = 100 [1] [%] | Oxidase activity (%) with 1 mM αF6P as substrate, relative to oxidase activity of CFP-H40 = 100 [1] [%] | current response on a screen-printed carbon electrode at 83, 166, 249 and 332 µg/ml HbA1c (hemoglobin A1c (HbA1c)) | dehydrogenase activity on HbA1c (absorbance at 433 nm, WST-3) (hemoglobin A1c (HbA1c)) | dehydrogenase activity of a 38.4 mg/ml CFP-H38-dh3 solution [1] | dehydrogenase activity of an 8.8 mg/ml CFP-H38-dh3 solution [1]
B1 | 8.23 | 30.7 | 3.43 | 28.3 | – | – | – | – | – | – | –
B2 | – | – | 1.3 | – | 16 | 21 | 21 | – | – | – | –
B3 | – | – | 0.45 | – | 29 | 7.3 | 13 | – | – | – | –
B4 | 3.22 | 2.7 | 0.3 | 1 | – | – | – | HbA1c was quantified with high accuracy using CFP-H38-dh3 | a significant increase was observed in the absorbance, compared with the control. That is, it was confirmed that CFP-H38-dh3 exhibited dehydrogenase activity on HbA1c | 38.4 mg/ml (17.8 U/ml) CFP-H38-dh3 solution | 8.8 mg/ml (4.1 U/ml) CFP-H38-dh3 solution
B5 | – | – | 1.4 | – | 5.4 | 23 | 7.5 | – | – | – | –
B6 | – | – | 6.2 | – | 16 | 100 | 100 | – | – | – | –
B7 | – | – | 0.35 | – | 5.4 | 5.7 | 1.9 | – | – | – | –
B8 | 8.94 | 100 | 11.2 | 100 | – | – | – | – | – | – | –
B9 | 24 | 20 | 2.23 | 53.4 | – | – | – | – | – | – | –
